Reference: PMC2908990 (Molecular cell, 2009)

Molecular target: BiP, murine sequence (hamster BiP mutated to the murine sequence) (murine, UniProt P20029 20-655)
Experiment: SEC

Chain of BiP, murine sequence (hamster BiP mutated to the murine sequence) (P20029 20-655, change not shown): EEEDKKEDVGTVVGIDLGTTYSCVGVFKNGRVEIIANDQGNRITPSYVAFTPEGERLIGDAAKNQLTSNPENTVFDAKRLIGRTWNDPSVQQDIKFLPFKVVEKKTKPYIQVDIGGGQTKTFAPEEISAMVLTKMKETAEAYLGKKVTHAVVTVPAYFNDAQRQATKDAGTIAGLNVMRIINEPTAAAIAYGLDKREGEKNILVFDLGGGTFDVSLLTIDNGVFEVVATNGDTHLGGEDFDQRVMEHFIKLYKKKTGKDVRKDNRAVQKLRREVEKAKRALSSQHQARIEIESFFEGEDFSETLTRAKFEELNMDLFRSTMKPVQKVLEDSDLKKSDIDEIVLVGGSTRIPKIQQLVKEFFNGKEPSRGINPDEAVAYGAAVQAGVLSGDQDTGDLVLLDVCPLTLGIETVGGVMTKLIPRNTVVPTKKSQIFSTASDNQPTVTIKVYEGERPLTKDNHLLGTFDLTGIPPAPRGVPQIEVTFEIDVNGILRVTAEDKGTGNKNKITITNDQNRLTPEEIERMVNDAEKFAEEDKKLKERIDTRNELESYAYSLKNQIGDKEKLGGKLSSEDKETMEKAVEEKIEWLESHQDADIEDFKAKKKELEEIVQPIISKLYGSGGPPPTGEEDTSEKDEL

Row | Kd | koff | kon | Binder
1 | 12.6 ± 0.7 µM | 8.33e-05 s⁻¹ | 4.33 M⁻¹ s⁻¹ | CH1 domain of the murine IgG1 heavy chain, oxidized (internal disulfide bridge formed) (domain or fragment, internal disulfide bridge formed (oxidized; Cys25-Cys80)) not shown
2 | 4.2 ± 0.4 µM | 7.83e-05 s⁻¹ | 6.83 M⁻¹ s⁻¹ | CH1 domain of the murine IgG1 heavy chain, reduced (domain or fragment, internal disulfide bridge not formed (reduced)) not shown
